Data taken from US20170240596A1 (published 2017).
No end group written: not given here.

Legend:
[1] = biological target: C4-2; experiment: flow cytometry; C4-2 cells; apparent Kd
[2] = biological target: C4-2 cells; experiment: flow cytometry; C4-2 cells; apparent Kd
[3] = biological target: C4-2; experiment: flow
[4] = biological target: C4-2 cells; experiment: flow

Binder | Kd [1] | also measured
HSDNHYRPADKL (also: FAM label, position not given here) [HSD] | 30.8 µM | –
SGYQTFYWPGPI (also: FAM label, position not given here) [Scrambled GTI] | – | Kd [2]: > 100 µM
GTIQPYPFSWGY (also: FAM (fluorescein amidite) label, position not given here) [GTI] | – | Kd [3]: 8.91 µM; Kd [4]: 8.91 µM

The next lines start with results.

Kd [1] | Binder | also measured
9.79 µM | YVNSHSILGYTG (also: FAM label, position not given here) [YVN] | –
44.1 µM | TGHLYPTRMEIQ (also: FAM label, position not given here) [TGH] | –
